Results reported in US20240132626A1 (Eli Lilly, published 2024).

How the values were obtained:
Test in all cases: SPR, captured via anti-human kappa, soluble ECD injected
[1] = target: T1, Soluble human EGFR ECD protein (human, UniProt P00533 25-645)
T1 construct: extracellular domain; His-tagged

[2] = target: T2, Soluble human HER-2 extracellular domain (ECD) protein (human, UniProt P04626 23-652)
T2 construct: extracellular domain; His-tagged

[3] = target: T3, Soluble human cMet extracellular domain (ECD) protein (human, UniProt P08581 25-932)
T3 construct: extracellular domain; His-tagged
T3 sequence (P08581 25-932): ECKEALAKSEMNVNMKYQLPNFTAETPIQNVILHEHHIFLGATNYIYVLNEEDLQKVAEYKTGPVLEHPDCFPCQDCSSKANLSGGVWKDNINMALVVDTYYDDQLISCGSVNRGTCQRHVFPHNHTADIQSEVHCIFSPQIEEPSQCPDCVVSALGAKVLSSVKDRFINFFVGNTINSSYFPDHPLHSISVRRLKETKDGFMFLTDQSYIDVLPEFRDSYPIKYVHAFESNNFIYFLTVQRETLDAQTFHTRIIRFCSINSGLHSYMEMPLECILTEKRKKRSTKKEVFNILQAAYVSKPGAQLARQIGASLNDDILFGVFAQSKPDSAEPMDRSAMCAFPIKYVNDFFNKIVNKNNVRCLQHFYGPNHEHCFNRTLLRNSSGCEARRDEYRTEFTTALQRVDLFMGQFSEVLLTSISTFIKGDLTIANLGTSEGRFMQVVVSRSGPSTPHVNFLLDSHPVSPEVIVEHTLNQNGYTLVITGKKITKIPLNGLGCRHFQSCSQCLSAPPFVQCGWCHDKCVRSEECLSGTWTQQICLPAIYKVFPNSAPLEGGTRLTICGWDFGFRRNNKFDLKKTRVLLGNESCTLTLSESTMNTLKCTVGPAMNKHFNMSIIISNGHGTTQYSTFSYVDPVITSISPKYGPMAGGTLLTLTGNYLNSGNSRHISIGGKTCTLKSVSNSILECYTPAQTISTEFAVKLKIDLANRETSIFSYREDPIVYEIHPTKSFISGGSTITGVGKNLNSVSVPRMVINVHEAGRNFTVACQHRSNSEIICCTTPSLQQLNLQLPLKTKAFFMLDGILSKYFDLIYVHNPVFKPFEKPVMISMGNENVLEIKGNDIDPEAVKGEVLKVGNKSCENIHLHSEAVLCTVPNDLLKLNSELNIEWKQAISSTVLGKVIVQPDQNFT

B1: Matuzumab (antibody, V domains shown)
VH: QVQLVQSGAEVKKPGASVKVSCKASGYTFTSHWMHWVRQAPGQGLEWIGEFNPSNGRTNYNEKFKSKATMTVDTSTNTAYMELSSLRSEDTAVYYCASRDYDYDGRYFDYWGQGTLVTVSS
VL: DIQMTQSPSSLSASVGDRVTITCSASSSVTYMYWYQQKPGKAPKLLIYDTSNLASGVPSRFSGSGSGTDYTFTISSLQPEDIATYYCQQWSSHIFTFGQGTKVEIKG
B1 was tested, and the Kd [1] was 13 nM, the koff [1] was 0.0083 s⁻¹ and the kon [1] was 650000 M⁻¹ s⁻¹.

B2: HER-2 X EGFR X cMet TsAb_C_HL (other)
heavy 1: EVQLVESGGGLVQPGGSLRLSCAASGFTFTDYTMDWVRKAPGKGLEWVADVNPNSGGSIYNQEFKGRFTLSVDRSKNTLYLQMNSLRAEDTAVYYCARNLGPSFYFDYWGQGTLVTVSSASTKGPSVFPLAPSSKSTSGGTAALGCLVKDYFPEPVTVSWNSGALTSGVATGPAVLQSSGLYSLSSVVTVPSSSLGTQTYICNVNHKPSNTKVDKKVEPKSCDKTHTCPPCPAPEAAGGPSVFLFPPKPKDTLMISRTPEVTCVVVDVSHEDPEVKFNWYVDGVEVHNAKTKPREQYQSTYRVVSVLTVLHQDWLNGKEYKCKVSNKALPAPIEKTISKAKGQPREPQVSTLPPSREEMTKNQVSLMCLVYGFYPSDIAVEWESNGQPENNYKTTPPVLDSDGSFFLYSVLTVDKSRWQQGNVFSCSVMHEALHNHYTQKSLSLSPGKGGGGSGGGGSGGGGSGGGGSEVQLVESGGGLVQPGGSLRLSCAASGYTFTSYWLHWVRQAPGKGLEWVGMIDPSNSDTRFNPNFKDRFTISADTSKNTAYLQMNSLRAEDTAVYYCATYRSYVTPLDYWGRGTLVTVSSASTKGPSVFPLAPSSKSTSGGTAALGCLVADYFPEPVTVSWNSGALTSGVHTFPAVLQSSGLYSLSSVVTVPSSSLGTQTYICNVNHKPSNTKVDERVEPKSC
light 1: RIQMTQSPSSLSASVGDRVTITCKASQDVSIGVAWYQDKPGKAPKLLIYSASYRYTGVPSRFSGSGSGTDFTLTISSLQPEDFATYYCQQYYIYPYTFGQGTKVEIKGQPKAAPSVTLFPPSSEELQANKATLVCYISDFYPGAVTVAWKADSSPVKAGVETTTPSKQSNNKYAAWSYLSLTPEQWKSHRSYSCQVTHEGSTVEKTVAPTEC
heavy 2: QVQLVQSGAEVKKPGASVKVSCKASGYTFTSHWMHWVRYAPGQGLEWIGEFNPSNGRTNYNEKFKSKATMTVDTSTNTAYMELSSLRSEDTAVYYCASRDYDYDGRYFDYWGQGTLVTVSSASTKGPSVFPLAPCSKSTSGGTAALGCLVKDYFPEPVTVSWNSGALTSGVHTFPAVLQSSGLYSLSSVVTVPSSSLGTQTYICNVNHKPSNTKVDKKVEPDSGDKTHTCPPCPAPEAAGGPSVFLFPPKPKDTLMISRTPEVTCVVVDVSHEDPEVKFNWYVDGVEVHNAKTKPREEQYQSTYRVVSVLTVLHQDWLNGKEYKCKVSNKALPAPIEKTISKAKGQPREPQVYTLPPSRGDMTKNQVQLTCLVKGFYPSDIAVEWESNGQPENNYKTTPPVLDSDGSFFLASKLTVDKSRWQQGNVFSCSVMHEALHNHYTQKSLSLSPGKGGGGSGGGGSGGGGSGGGGSDIQMTQSPSSLSASVGDRVTITCKSSQSLLYTSSQKNYLAWYQQKPGDAPKLLIYWASTRESGVPSRFSGSGSGTDFTLTISSLQPEDFATYYCQQYYAYPWTFGQGTKVEIKRTVAAPSVFIFPPSDKQLKSGTARVVCLLNNFYPREAKVQWKVDNALQSGNSQESVTEQDSKDSTYSLISTLTLSKADYEKHKVYACEVTHQGLSSPVTKSFNRGEC
light 2: DIQMTQSPSSLSASVGDRVTITCSASSSVTYMYWYQRKPGKAPKLLIYDTSNLASGVPSRFSGSGSGTDYTFTISSLQPEDIATYYCQQWSSHIFTFGQGTKVEIKRTVAAPSVFIFPPSKEQLKSGTASVVCLLNNFYPREAKVQWKVDNALQSGNSQESVTEQDSKDSTYSLSSTLTLSKADYEKHKVYACEVTHQGLSSPVTKSFNRGEC
notes: Trispecific IgG-Fab antibody with Fabs from pertuzumab, matuzumab and MetMAb; the anti-cMet Fab is dually tethered at the C-terminus of the heterodimeric Fc
B2 showed a Kd [2] of 1.2 nM, a koff [2] of 0.00027 s⁻¹ and a kon [2] of 230000 M⁻¹ s⁻¹. The Kd [3] was 74 nM, the koff [3] was 0.00025 s⁻¹ and the kon [3] was 3400 M⁻¹ s⁻¹. The Kd [1] was 10 nM, the koff [1] was 0.0085 s⁻¹ and the kon [1] was 850000 M⁻¹ s⁻¹.
